The values below come from patent US20220251174A1 (published 2022).

Broadly, the IC50 is the concentration at which inhibition is half-maximal. Read a low IC50 as greater potency. By Kd is commonly meant a measure of binding affinity in units of concentration. Low values mean tighter binding, high ones weaker binding.

The target of test [1] is SARS-CoV-2 Spike RBD (tagless) (UniProt P0DTC2 319-541). The test is described as follows: BLI. For orientation: In BLI a coated tip is dipped into the sample, and binding shifts an interference pattern.
A further test deals with SARS-CoV-2 Spike (). The test is described as follows: BLI.

B1: 23-H7 Fab (Fab, V domains shown)
VH: QVQLVQSGAEVKLPGASMKVSCKASGYTFSTYYMHWVRQAPGQGPEWMGVIDPSGGTTSYAQKFHDRIAMTRDTSTSTAYLELSSLRSEDMAVYYCARGGFADAVDYWGQGTLVTVSS
VL: NFMLTQPHSVSGSPGKTVTISCTRNSGSIAGNYVQWYQQRPGSAPTTVIYEDNQRPSGVPDRFSGSIDSSSNSASLTISGLKTEDEADYYCQSYDASHLHVIFGGGTKVTVL
In turn, B1 had an IC50 in test [1] of 4.6 nM.

B2: 22-E7 (full-length human IgG1) (antibody, V domains shown)
VH: QVQLVESGGGVVQPGTSLRLSCAASGFTFNNYPMFWVRQAPGKGLEWLALISYDGNHKVYADSVKGRFTISRDNAKNTLYLQMHSLRAEDTALYYCASDLSGAEDSWGQGTLVTVSS
VL: QSALTQPASVSGSPGQSITISCTGTSSDVGGYNYVSWYQQHPGKAPKLLIYEVSNRPSGVSNRFSGSKSGNTASLTISGLQAEDEADYYCSSYTSSSTWVFGGGTKLTVL
Consider B2, for which the Kd in the test with SARS-CoV-2 Spike () was 248 nM.
